Experimental data: patent US20130217572A1, “SPECIFIC DELIVERY OF AGROCHEMICALS” (VRIJE UNIVERSITEIT BRUSSEL, priority 2010, published 2013)

How the values were obtained:
potato lectin (Sigma) [1] = target: T1, potato lectin (Sigma) (potato, UniProt Q9S8M0 23-323); test: microcapsule retention; L: amine capsules, BS3 two-step, 0.1 ug VHH/cm2; potato lectin coat 1 ug/ml; 10% coverage
T1 construct: Bought glycoprotein, coated on ELISA plates
T1 sequence (looked up): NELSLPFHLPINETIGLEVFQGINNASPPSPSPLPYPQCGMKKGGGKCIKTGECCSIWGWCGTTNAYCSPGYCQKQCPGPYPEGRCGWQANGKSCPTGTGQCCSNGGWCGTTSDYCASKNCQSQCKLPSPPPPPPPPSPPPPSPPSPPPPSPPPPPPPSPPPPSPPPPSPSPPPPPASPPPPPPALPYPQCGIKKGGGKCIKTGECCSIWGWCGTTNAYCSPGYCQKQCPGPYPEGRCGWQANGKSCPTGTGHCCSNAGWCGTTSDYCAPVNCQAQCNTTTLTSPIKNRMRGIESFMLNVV

potato lectin (Sigma) [2] = target: T1, potato lectin (Sigma); test: microcapsule retention; G: amine capsules, BS3 one-step, 1 ug VHH/cm2; potato lectin coat 100 ug/ml; 10% coverage
potato lectin (Sigma) [3] = target: T1, potato lectin (Sigma); test: microcapsule retention; L: amine capsules, BS3 two-step, 0.1 ug VHH/cm2; potato lectin coat 10 ug/ml; 100% coverage
potato lectin (Sigma) [4] = target: T1, potato lectin (Sigma); test: microcapsule retention; G: amine capsules, BS3 one-step, 1 ug VHH/cm2; potato lectin coat 10 ug/ml; 100% coverage
potato lectin (Sigma) [5] = target: T1, potato lectin (Sigma); test: microcapsule retention; K: amine capsules, BS3 two-step, 1 ug VHH/cm2; potato lectin coat 100 ug/ml; 100% coverage
potato lectin (Sigma) [6] = target: T1, potato lectin (Sigma); test: microcapsule retention; G: amine capsules, BS3 one-step, 1 ug VHH/cm2; potato lectin coat 1 ug/ml; 10% coverage
potato lectin (Sigma) [7] = target: T1, potato lectin (Sigma); test: microcapsule retention; H: amine capsules, BS3 one-step, 0.1 ug VHH/cm2; potato lectin coat 100 ug/ml; 10% coverage
potato lectin (Sigma) [8] = target: T1, potato lectin (Sigma); test: microcapsule retention; L: amine capsules, BS3 two-step, 0.1 ug VHH/cm2; potato lectin coat 100 ug/ml; 10% coverage
potato leaf discs [9] = test: VHH binding at different temperatures; parameters: species or system potato (variety Désirée); conditions: 5 μg/ml in PBS; temperature range from 4° C. to 55° C.
Description: In order to test applicability of VHH as binders for greenhouse or field applications where binding supposedly may occur at different and sometimes even extreme temperatures, a leaf dip VHH binding experiment at different temperatures was used. Temperatures used were 4° C., room temperature, 37° C., 55° C., or 70° C. ø 8 mm potato leaf discs (variety Désirée) were cut using a puncher tool. The leaf discs were equilibrated to different temperatures by washing three times with PBS at different temperatures. Hexahistidine-tagged VHH were diluted to 5 μg/ml in PBS at different temperatures, added to the corresponding equilibrated leaf discs, and binding of VHH was allowed for 1 hour at different temperatures. After incubation with VHH, leaf discs were washed five times with PBS at room temperature. Bound VHH were detected by incubation with monoclonal mouse anti-histidine antibodies directly conjugated with Alexa-488 fluorescent dye (Abd Serotec) in PBS for 1 hour at room temperature. Unbound anti-histidine antibodies were removed by washing five times with PBS at room temperature. Leaf discs were analyzed for bound VHH with microscopy. […] Please note that leaf discs severely suffer when submerged in PBS at 70° C. for 1 hour but that binding of VHH was still detected.

potato leaf discs [10] = test: Leaf disc binding assay with VHH-coupled Uvitex microcapsules; parameters: species or system potato (variety Désirée)
Description: A leaf disc binding assay was used to evaluate the interaction of VHH-coupled microcapsules with potato, grass and azalea leaves. ø 8 mm leaf discs were sampled from the leaves of potato pot plants (variety Désirée), from the leaves of greenhouse-grown Lollium perenne and from the leaves of azalea pot plants. Leaf discs were washed three times with PBS. Microcapsules containing lambda cyhalothrin or Uvitex were diluted to appropriate densities in 1% skimmed milk in PBS with 0.05%-TWEEN®-20. Microcapsules were added to the leaf discs and settling of microcapsules and binding of targeting agents allowed for 1 hour. Unbound microcapsules were removed by washing three to five times with PBS with 0.05%-TWEEN®-20.
Leaf discs with Uvitex microcapsules were analyzed for bound microcapsules on a macrozoom microscope system (Nikon). Microcapsules were counted using Volocity image analysis software (Perkin Elmer). A DAPI filter was used to visualize Uvitex microcapsules. […]
A titration experiment was performed to investigate what dilution factor of microcapsules with specific VHH corresponds to an application of microcapsules to which no VHH were coupled to obtain similar amounts of microcapsules after an identical treatment. Two-fold serial dilutions of microcapsules were prepared and leaf disc binding was analyzed on potato leaf discs for these dilution series. […]

unrelated antigens [11] = test: VHH-coupled Uvitex OB microcapsules retained on wells coated with unrelated antigen; 100% surface coverage
unrelated antigens [12] = test: VHH-coupled Uvitex microcapsules retained on wells coated with unrelated antigen; 4% surface coverage
potato leaf surface = test: VHH binding to leaf discs (microscopy); parameters: species or system potato (variety Désirée); conditions: 5 μg/ml in PBS, anti-histidine Alexa-488 detection
Description: VHH binding to non-fixed leaf discs of potato (variety Désirée), black nightshade, grass, wheat or azalea was investigated. For comparison, binding of CBM3a to non-fixed leaf discs of potato (variety Désirée) was analyzed in parallel. Leaf discs were prepared by punching a fresh potato leaf with a 5 mm belt hole puncher tool. Leaf discs were put immediately in wells of a 96-well plate containing 200 μl per well 5% MPBS or PBS, and incubated for 30 minutes. Leaf discs were transferred to solutions containing 5 μg/ml VHH antibody fragment, respectively 5 μg/ml CBM3a in 2% MPBS or PBS and incubated for 60-90 minutes. Unbound VHH or CBM3a proteins were removed by washing three times with 2% MPBS or PBS. Bound VHH or CBM3a proteins were detected with incubation with monoclonal mouse anti-histidine antibodies directly conjugated with Alexa-488 fluorescent dye (Abd Serotec) in 1% MPBS for 1 hour. Unbound antibodies were removed by washing three times with PBS. Leaf discs were put on glass slides, covered with cover slips, and analyzed by microscopy or on a macrozoom microscope system (Nikon) or a SP5 confocal microscope system (Leica).

Control VHH
microcapsule counts (microcapsules) (potato lectin (Sigma) [1]): 116
microcapsule counts (microcapsules) (potato lectin (Sigma) [2]): 36
microcapsule counts (microcapsules) (potato lectin (Sigma) [3]): 787
microcapsule counts (microcapsules) (potato lectin (Sigma) [4]): 104
microcapsule counts (microcapsules) (potato lectin (Sigma) [5]): 866
microcapsule counts (microcapsules) (potato lectin (Sigma) [6]): 7
microcapsule counts (microcapsules) (potato lectin (Sigma) [7]): 225
microcapsule counts (microcapsules) (potato lectin (Sigma) [8]): 248

B1: VHH 3E6 (VHH)
VHH: QVQLQESGGGLVQPGGTLSLSCAASGFNVRWYGMGWFRQAPGKEREGVACISALQETTAYADSVKGRFTLSRDNPKNTLSLQMNNLQPEDTGVYYCATTDCDDSSRMTYTSYLGQGTQVTVSS
notes: also called Monovalent VHH 3E6
binding to leaf discs at different temperatures (potato leaf discs [9]): showed detectable binding
binding and retaining of Uvitex microcapsules to leaf surfaces (potato leaf discs [10]): capable of binding and retaining microcapsules specifically to leaf surfaces
area of bound microcapsules (unrelated antigens [11]): 84.5
surface area of bound microcapsules (unrelated antigens [12]): 5.01
binding to native potato leaf surface (potato leaf surface): binding leaf surface, stomata, glandular trichomes, and leaf hairs
binding to native potato leaf surface (potato leaf surface; listed as 3E6): clearly binding to trichomes, stomata and cuticle
